US20050260595A1

Experiments:
[1] = target: human adenosine A2a receptor protein (human) (UniProt P29274); experiment: cell-based or functional assay
[2] = target: human dopamine D1 receptor protein (human) (UniProt P21728); experiment: cell-based or functional assay
Sequence of human dopamine D1 receptor protein (human) (P21728 whole entry): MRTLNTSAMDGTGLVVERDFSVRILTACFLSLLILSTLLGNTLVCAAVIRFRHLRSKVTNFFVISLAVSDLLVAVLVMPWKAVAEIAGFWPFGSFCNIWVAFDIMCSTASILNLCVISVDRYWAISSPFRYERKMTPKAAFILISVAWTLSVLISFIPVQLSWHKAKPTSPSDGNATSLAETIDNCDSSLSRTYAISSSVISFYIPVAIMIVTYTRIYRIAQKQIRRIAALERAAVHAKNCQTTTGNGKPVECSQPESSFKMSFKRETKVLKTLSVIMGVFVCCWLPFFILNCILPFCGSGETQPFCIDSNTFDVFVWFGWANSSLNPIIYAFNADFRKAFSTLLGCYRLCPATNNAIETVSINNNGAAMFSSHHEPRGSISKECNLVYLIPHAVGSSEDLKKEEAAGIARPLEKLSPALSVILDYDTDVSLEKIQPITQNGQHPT

Sequence of human adenosine A2a receptor protein (human) (P29274 whole entry): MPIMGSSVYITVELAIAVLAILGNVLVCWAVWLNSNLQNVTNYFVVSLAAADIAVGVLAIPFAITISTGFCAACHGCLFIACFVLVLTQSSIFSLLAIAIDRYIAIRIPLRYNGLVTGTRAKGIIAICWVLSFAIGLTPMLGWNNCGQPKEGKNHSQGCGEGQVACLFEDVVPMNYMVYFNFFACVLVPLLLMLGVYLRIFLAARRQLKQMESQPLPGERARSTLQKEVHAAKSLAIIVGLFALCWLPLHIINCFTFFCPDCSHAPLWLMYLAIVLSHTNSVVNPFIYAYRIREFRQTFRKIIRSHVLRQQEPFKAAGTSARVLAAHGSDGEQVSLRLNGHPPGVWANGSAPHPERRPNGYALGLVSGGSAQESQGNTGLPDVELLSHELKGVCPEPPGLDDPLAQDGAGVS

cAMP level (HitHunter ECF cyclic AMP chemiluminescent assay; CHO cells co-expressing Gm1 and adenosine A2a receptor, 10 µM adenosine; cells expressing only the A2a receptor = 100%, no contact = 0%) [1]: 134%
cAMP level (HitHunter ECF cyclic AMP chemiluminescent assay; CHO cells co-expressing Gm1 and dopamine D1 receptor, 10 µM dopamine; cells expressing only the D1 receptor = 100%, no contact = 0%) [2]: 127%
Substance: human Gm1 protein
